Earlier results, collected in patent publication US11807856B2, “Recombinant Pichia pastoris strain and method for producing active pediocin PA-1” (VIET NAM NATIONAL UNIVERSITY HO CHI MINH CITY, priority 2019, dated 2023).
Like-named read-outs stand apart in the source and are kept apart here. Ends that are not written are not given here.

How the values were obtained:
[1] = pH 2-8
[2] = for activity after heat treatment: 100° C. for 60 minutes (1 hour); for antimicrobial activities after heat treatment: 121° C.

In the case of “native pediocin PA-1: class IIa bacteriocin, 4.6 kDa peptide with 44 amino acids, produced by Pediococcus acidilactici PAC1.0 (KYYGNGVTCGKHSCSVDWGKATTCIINNGAMAWATGGHQGNHKC; ends and bridges not checked; cysteine pairing not given here; UniProt P29430 19-62, looked up)”, the “time stable at pH levels of 2-8” value [1] is given as “at least 2 hours”, the “activity after heat treatment” value ([2]; listed as prior-art pediocin PA-1) is given as “stable” and the “activity after heat treatment” value ([2]; produced by Pediococcus acidilactici PAC1.0) is given as “remain its full activities”. For the same substance, the “antimicrobial activities after heat treatment” value (“antimicrobial activities” below) ([2]; 20 minutes treatment, listed as prior-art pediocin PA-1) was “lost all activity”, the “antimicrobial activities” value ([2]; 20 minutes treatment, produced by Pediococcus acidilactici PAC1.0) was “completely disappeared” and the “antimicrobial activities” value ([2]; after 15 minutes) was “gradually reduced”.
